This passage reports peptide exchange yield results from patent US20230212244A1 (IMMATICS BIOTECHNOLOGIES, published 2023).

The assay deals with T1, HLA-A*02:01 (human).
T1 construct: MHC class I monomer made peptide-receptive by UV cleavage of a UV-sensitive ligand; also called peptide-receptive MHC molecules
Kind of assay: UV-ligand exchange ELISA (anti-β2m), peptide exchange yield grade. The method in brief:
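After UV-ligand exchange, peptide–MHC monomers were diluted 100-fold and captured for 1 h at 37 °C on streptavidin-coated plates, then detected with HRP-anti-β2m (2 ug/ml, 1 h, 37 °C) and TMB, A450 nm. Exchange yield was calculated against refolded HLA-A*02:01/MLA-001 standards (15–500 ng/ml).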
(ELISA stands for enzyme-linked immunosorbent assay.)

In the case of KILVSLIEV [peptide KILVSLIEV (SEQ ID NO: 102)], the peptide exchange yield was in the range of 50 to 75%.
Molecule FLFGYPKRL [peptide FLFGYPKRL (SEQ ID NO: 103)] displayed a peptide exchange yield of 20 to 50%.
